From patent US20120237528A1 (Janssen / Centocor, published 2012) come the findings set out here.

The target in experiment [1] is T1, recombinant extracellular domain (ECD) of human TF, amino acid 1-219 of the mature chain, C-terminal His6-tag (human, UniProt P13726 33-251).
T1 construct: expressed in a mammalian system; used for ELISA and Biacore; biotinylated by NHS-ester for the Fab ELISA; also called His6-TF-ECD1-219; HumanTF1-219
Kind of experiment: Biacore. In general terms: In SPR one partner is held on a chip, and binding of the other changes the refractive index at the surface.

Experiment [2] has as its target T2, Cynomolgous monkey (cyno) TF-ECD with His Tag (cynomolgus monkey, UniProt P13726 33-251 (human entry)).
T2 construct: also called cyno antigen
T2 chain: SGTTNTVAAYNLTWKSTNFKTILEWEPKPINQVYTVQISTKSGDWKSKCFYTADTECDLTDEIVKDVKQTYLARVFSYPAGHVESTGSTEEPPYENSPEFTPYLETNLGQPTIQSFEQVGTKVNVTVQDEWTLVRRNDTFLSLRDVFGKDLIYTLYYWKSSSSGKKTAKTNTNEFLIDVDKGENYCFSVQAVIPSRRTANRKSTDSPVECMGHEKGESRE
Kind of experiment: Biacore.

The target of experiment [3] is T3, endogenous human tissue factor on MDA-MB-231 breast cancer cells (human, UniProt P13726 33-295). Kind of experiment: cell-based or functional assay.
For experiment [4], the target named is Innovin, lyophilized recombinant human tissue factor combined with phospholipids (human, UniProt P13726 33-295, limits assumed). Kind of experiment: cell-based or functional assay.
The target of experiment [5] is T3, endogenous human tissue factor on …. Kind of experiment: cell-based or functional assay. The source holds these as a separate data set.
Experiment [6] has the same target. Kind of experiment: cell-based or functional assay. This is another data set of the same source.
Experiment [7] has the same target. Kind of experiment: FACS on MDA-MB-231 cells. As to the method:
This assay is used to detect the direct binding of antibody to endogenouse human TF expressed in breast cancer cells. Prepare four point titrations of the test mAbs in FACS buffer (1% FBS in PBS) in duplicate. Start a titration at 1,000 ng/ml with 1:4 dilutions. […] Unstained cells and secondary antibody, Cy-5 conjugated Goat anti-Human IgG Fc antibody in FACS buffer 1:200, is used as controls and prepared immediately before use.
Using standard tissue culture technique, rinse adherent MDA-MB-231 cells in culture flask with once with PBS (w/o Ca+2/Mg+2). Lift cells with Versene and count the cells and seed 200,000 cells per well in a polystyrene V-bottom plate. FACS Analysis Protocol: Tissue Factor Binding. Pellet the cells in a Allegra X-15R centrifuge at 450×g for 3 minutes at 4° C., resuspend in FACS Buffer (2% FBS in PBS) and plate 200,000 cells per well in 200 uL. Pellet cells at 450×g for 3 minutes at 4° C. Discard supernatants and add 100 uL/well test or control mAbs to designated wells and incubate on ice or at 4° C. for 1 hour (+/−10 minutes). Pellet cells at 450×g for 3 minutes at 4° C. Discard supernatants and wash cells once in FACS buffer. Resuspend cells in 200 uL/well FACS buffer and pellet cells at 450×g for 3 minutes at 4° C. Discard supernatants and add 100 uL/well secondary antibody to designated wells (triterate), and incubate on ice for 1 hour (+/−10 minutes). Pellet cells at 450×g for 3 minutes at 4° C. Discard supernatants and wash cells 2 times in FACS buffer before resuspending the cells in 200 uL/well FACS Buffer (triterate). Pellet cells at 450×g for 3 minutes at 4° C. Discard supernatant and resuspend cells in 100 uL/well CytoFix Buffer. Analyze reactions by flow cytometry (BD FACSArray). The FlowJo Software is used for FACS data analysis by gating the main population of cells in the unstained control well and applying the gate to the whole data set. The data is exported as a table of the geometric mean fluorescence intensity (MFI) in the red channel for the applied gate.

Experiment [8] addresses T4, recombinant human FcγIIIa receptor (human, UniProt P08637 17-208, limits assumed). Nature of the experiment: cell-based or functional assay.
Experiment [9] has as its target T1, recombinant extracellular domain (ECD) …. Kind of experiment: TF-ECD binding ELISA, chemiluminescent. On the technique in general: ELISA stands for enzyme-linked immunosorbent assay.
Experiment [10] addresses T2, Cynomolgous monkey (cyno) TF-ECD with …. Kind of experiment: TF-ECD binding ELISA, chemiluminescent.
Experiment [11] addresses T4, recombinant human FcγIIIa receptor. Kind of experiment: Fc receptor binding assay (method of a co-pending application or Biacore).
For experiment [12] the target is unchanged. Kind of experiment: Fc receptor binding assay.
The target in experiment [13] is T1, recombinant extracellular domain (ECD) …. Kind of experiment: Biacore. This is another data set of the same source.
Experiment [14] has the same target. Nature of the experiment: Biacore. The source holds these as a separate data set.
Experiment [15] has the same target. Kind of experiment: Biacore, KD compared with the reference (0.56 nM, the value of M1 in Table 5).

Read-outs that look alike come from different tables or passages of the source.

T4 sequence (P08637 17-208 limits assumed): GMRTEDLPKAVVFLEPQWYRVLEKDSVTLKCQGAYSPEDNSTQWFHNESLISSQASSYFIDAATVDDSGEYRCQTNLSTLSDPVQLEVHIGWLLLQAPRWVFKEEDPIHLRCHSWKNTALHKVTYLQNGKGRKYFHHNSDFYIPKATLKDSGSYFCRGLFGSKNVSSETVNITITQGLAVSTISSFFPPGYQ

B1: M1, 10H10 mouse-human chimera (antibody, V domains shown)
VH: QVHLQQSGAELMKPGASVKISCKASGYTFITYWIEWVKQRPGHGLEWIGDILPGSGSTNYNENFKGKATFTADSSSNTAYMQLSSLTSEDSAVYYCARSGYYGNSGFAYWGQGTLVTVSA
VL: DIVMTQSPSSLTVTAGEKVTMSCKSSQSLLSSGNQKNYLTWYQQIPGQPPKLLIYWASTRESGVPDRFTGSGSGTDFTLTINSVQAEDLAVYYCQNDYTYPLTFGAGTKLELK
notes: also called H13/L1; parent chimeric antibody
Take B1: the Kd (in general, the equilibrium constant for the complex coming apart) in [1] was found to be 0.56 nM; in experiment [2], 1.34 nM. Further, in experiment [3], the “IL-8 Induction, Ave % inhibition” value worked out at 106%. Moreover, in [4], the “T½ Max (seconds), coagulation of human plasma” value (“T½ Max (seconds), coagulation” below) is 173 s. The “% IL-8 Inhibition” value in experiment [5] was determined as 96.1%. Moreover, the “IC50 (ug/ml), IL-8 induction assay” value in experiment [6] was 0.527 µg/mL. Besides, the “Whole Cell Binding, Ave %” value in [7] was found to be 101%. In addition, in [8], the concentration for a half-maximal effect (EC50 (read off the curve)) (commonly the concentration at which the effect is half-maximal) was approximately 0.07 µg/mL. The EC50 (as a rule, the concentration at which the effect is half-maximal) came out at 0.0117 µg/mL in [9] and 0.0173 µg/mL in [10].

B2: M1593 (wild-type human IgG1/kappa constant domains) (antibody)
heavy: not shown
light: DIVMTQTPLSLPVTPGEPASISCKSSQSLLSSGNQKNYLTWYLQKPGQSPQLLIYWASTRESGVPDRFSGSGSGTDFTLKISRVEAEDVGVYYCQNDYTYPLTFGQGTKLEIKRTVAAPSVFIFPPSDEQLKSGTASVVCLLNNFYPREAKVQWKVDNALQSGNSQESVTEQDSKDSTYSLSSTLTLSKADYEKHKVYACEVTHQGLSSPVTKSFNRGEC
notes: produced in unmodified CHO; also called H171/L3; copies: 2 + 2
Regarding B2, the “T½ Max (seconds), coagulation” value in experiment [4] is 164 s. Further, the “EC50 (read off the curve)” value in experiment [8] was approximately 0.02 µg/mL. In addition, the Kd in [11] was 210 nM.

B3: M1593-LF (hIgG1 produced in host subline producing reduced fucosylation in glycans) (antibody)
heavy: not shown
light: DIVMTQTPLSLPVTPGEPASISCKSSQSLLSSGNQKNYLTWYLQKPGQSPQLLIYWASTRESGVPDRFSGSGSGTDFTLKISRVEAEDVGVYYCQNDYTYPLTFGQGTKLEIKRTVAAPSVFIFPPSDEQLKSGTASVVCLLNNFYPREAKVQWKVDNALQSGNSQESVTEQDSKDSTYSLSSTLTLSKADYEKHKVYACEVTHQGLSSPVTKSFNRGEC
modifications: glycan with low fucose content (less than 10% fucosylated)
notes: same chains as M1593 (IgG1/Kappa), made in a low-fucose CHO subline; copies: 2 + 2
For B3, in experiment [12], the “fold tighter binding than the unmodified IgG1 M1593” value was 18 fold. Also, the “EC50 (read off the curve)” value in experiment [8] is approximately 0.006 µg/mL. In experiment [11], the Kd was found to be 12 nM.

B4: M1593-DE (hIgG1 with S239D/I332E) (antibody)
heavy: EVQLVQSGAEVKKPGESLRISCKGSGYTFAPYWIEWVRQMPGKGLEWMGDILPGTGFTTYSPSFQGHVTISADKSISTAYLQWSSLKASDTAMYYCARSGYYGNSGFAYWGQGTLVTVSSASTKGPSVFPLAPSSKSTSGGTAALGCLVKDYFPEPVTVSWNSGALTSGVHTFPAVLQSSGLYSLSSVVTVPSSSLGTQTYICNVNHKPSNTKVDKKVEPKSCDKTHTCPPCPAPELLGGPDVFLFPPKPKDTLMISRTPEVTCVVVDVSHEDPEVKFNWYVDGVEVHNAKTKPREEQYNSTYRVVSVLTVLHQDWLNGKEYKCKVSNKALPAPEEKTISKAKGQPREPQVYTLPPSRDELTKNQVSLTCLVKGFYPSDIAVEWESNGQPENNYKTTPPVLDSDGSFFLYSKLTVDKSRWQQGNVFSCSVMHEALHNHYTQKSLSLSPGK
light: DIVMTQTPLSLPVTPGEPASISCKSSQSLLSSGNQKNYLTWYLQKPGQSPQLLIYWASTRESGVPDRFSGSGSGTDFTLKISRVEAEDVGVYYCQNDYTYPLTFGQGTKLEIKRTVAAPSVFIFPPSDEQLKSGTASVVCLLNNFYPREAKVQWKVDNALQSGNSQESVTEQDSKDSTYSLSSTLTLSKADYEKHKVYACEVTHQGLSSPVTKSFNRGEC
notes: copies: 2 + 2
Take B4: the “fold tighter binding than the unmodified IgG1 M1593” value in experiment [12] amounted to 40 fold. For the same molecule, the “EC50 (read off the curve)” value in experiment [8] was approximately 0.005 µg/mL. Besides, in experiment [11], the Kd is 5 nM.

B5: M61 (antibody, V domains shown)
VH: EVQLVQSGAEVKKPGESLRISCKGSGYTFITYWIEWVRQMPGKGLEWMGDILPGSGSTNYSPSFQGHVTISADKSISTAYLQWSSLKASDTAMYYCARSGYYGNSGFAYWGQGTLVTVSS
VL: DIVMTQTPLSLSVTPGQPASISCKSSQSLLSSGNQKNYLTWYLQKPGQPPQLLIYWASTRESGVPDRFSGSGSGTDFTLKISRVEAEDVGVYYCQNDYTYPLTFGQGTKLEIK
notes: complete MAb; FR4 is its own entry; also called H22/L5
Consider B5, for which the “fold lower KD than the murine parent MAb (M1)” value in experiment [13] was determined as 2.5 fold. The Kd in [1] stood at 0.21 nM; in [2] it was 1.71 nM; in experiment [14], 0.2 nM. Also, the koff (as a rule, the first-order rate constant of dissociation) in experiment [14] was determined as 1.9e-05 s⁻¹. Further, the kon (commonly the second-order rate constant of association) in experiment [14] was found to be 94100 M⁻¹ s⁻¹. The “IL-8 Induction, Ave % inhibition” value in [3] was found to be 112%. Moreover, in experiment [4], the “T½ Max (seconds), coagulation” value stood at 186 s. Also, the “% IL-8 Inhibition” value in [5] was 107%. Moreover, the “Whole Cell Binding, Ave %” value in experiment [7] is 111%. For the same molecule, the values for the EC50 in experiment [9] and in experiment [10] were 0.0083 µg/mL and 0.0241 µg/mL, respectively. In addition, the “fold lower KD than the murine parent MAb” value in [15] is 2.5 fold.
